Reference: the RNAGym collection of RNA variant scans (doi:10.7554/elife.90254)

B1: OR4K15 (parent)
chain: GUUAACGGUCAUAGGCCAUGGAAACUAGGAGCACCAUUUCGCUGCCAGUGAAGAAAUGAACAAAGAAAAUCUGGGCCAGGCAGGCAUCAAAAGAAAUAGUCUUGCGCUCAACCAGAAAGUCUGUAAUCAUUUUAAGGGUA

Variants of: B1
Test: self-cleavage, relative activity (ratio to wild type); higher = more cleavage; in vitro, sequencing; the parent is a self-cleaving ribozyme

Row | Variant | self-cleavage
1 | A22U A129C | 1.58
2 | A30G G58A | 0.67
3 | C16U G80A | 0.1
4 | U9C A92G | 0.82
5 | A78U U100A | 0.07
6 | C32U A55G | 0.65
7 | A96U A98G | 1.31
8 | U87C A89G | 1.73
9 | C17U A67G | 1.26
10 | A59U A140G | 2.05
11 | G15C A86U | 1.92
12 | U19G A33G | 0.96
13 | A129G U131C | 1.38
14 | A5C A95G | 0.99
15 | U38C A95G | 1.58
16 | A36G A96G | 1.13
17 | A18U U108C | 0.01
18 | A89G U122C | 1.03
19 | U2C A11G | 1.16
20 | A18U A66G | 1.5
21 | A18G A52U | 1.21
22 | A60C | 1.7
23 | U108C | 0.01
24 | A24G U139A | 1.53

Row | Variant | self-cleavage
25 | A30G A63U | 1.17
26 | A125G A126G | 0.68
27 | A110C A135U | 0.06
28 | G14A U70C | 0.96
29 | C34U A110G | 0.19
30 | U39A A117G | 2.24
31 | A86G A118U | 0.52
32 | A64U A68G | 2.16
33 | A82U U87C | 0.22
34 | A78G A117G | 0.22
35 | C101A A117G | 0.13
36 | U70C | 0.47
37 | A94G U131C | 0.66
38 | A68C C88G | 1.63
39 | A64G U127A | 2.12
40 | U9G A78G | 0.26
41 | A56U U127C | 1.47
42 | A68U A114U | 0.06
43 | A51U A66G | 2.03
44 | A23C A96G | 1.33
45 | U43A U70G | 1.12
46 | A89U U103A | 1.09
47 | U9A A92G | 1.08
48 | A13U A63G | 1.3

Row | Variant | self-cleavage
49 | U43A A110G | 0.19
50 | C25G A27U | 1.45
51 | A60U A86U | 1.67
52 | C107U U122A | 0
53 | A92G A116C | 0.09
54 | A18U A96U | 1.88
55 | G79U A96U | 0.13
56 | C17U G83A | 1.07
57 | U49C U70A | 1.1
58 | U9C U108C | 0.02
59 | U87A A110G | 0.15
60 | U39A U120A | 1.92
61 | A78G A82U | 0.19
62 | U19C A135G | 2.08
63 | A5G G48A | 0.77
64 | U57A A116U | 0.15
65 | G44C | 1.33
66 | A86U A89C | 1.51
67 | C10U A91G | 0.68
68 | U49C U103A | 0.71
69 | G21A A116G | 0.46
70 | A11U A66G | 2.37
71 | A62G A114U | 0.02
72 | A62G U132C | 1.59

Row | Variant | self-cleavage
73 | U72C C128A | 0.13
74 | A126U U127C | 0.5
75 | A23U A117G | 1.14
76 | U43C U103G | 0.01
77 | C105A C112U | 0
78 | A11U A86G | 1.35
79 | G58A A95G | 1.51
80 | A91G U120C | 0.53
81 | A55G G115A | 0.14
82 | A18C G28U | 1.37
83 | A64U U131C | 1.58
84 | G14A U130C | 0.45
85 | A82U A129G | 0.08
86 | A67U A125G | 1.2
87 | A129G A140U | 2.17
88 | C6A A89C | 1.1
89 | U122C A126U | 1.12
90 | G14A U19C | 1.44
91 | C85A C109A | 0.19
92 | U39C A64C | 1.88
93 | C71U A126G | 0.32
94 | A11U G75C | 0.16
95 | U70C A111G | 0.02
96 | A86G A111U | 0.11

Row | Variant | self-cleavage
97 | U57C U124C | 0.59
98 | C76A | 0.1
99 | U49G U139A | 1.7
100 | A94G U133C | 2.11
101 | A125G U132A | 0.32
102 | A63U U100A | 0.96
103 | U19C U39A | 2.15
104 | A13U A47G | 0.93
105 | U70G A95G | 1.21
106 | U72A U133G | 0.36
107 | A47C U120A | 2.24
108 | A47C U120C | 1
109 | A11G C88U | 1.54
110 | A60G C76U | 0.13
111 | A126U U131C | 1.84
112 | A110U A118G | 0.72
113 | A63U A92G | 1.88
114 | A54G G106U | 0.02
115 | U39C C107A | 0.03
116 | A30G A126U | 0.87
117 | G1A U43C | 2.15
118 | A13U U57C | 0.64
119 | G7U A56G | 1.29
120 | U12A A110U | 1.63

Row | Variant | self-cleavage
121 | A23G A114G | 0.54
122 | A30U A60G | 0.45
123 | A22G A134U | 1.05
124 | A5C | 1.21
125 | U38C U120A | 1.76
126 | A56G A126G | 0.36
127 | A64G U133A | 1.52
128 | A22G A111G | 0.05
129 | A52G A111G | 0.03
130 | A47U A69G | 0.73
131 | A59U U108A | 0.02
132 | A116U A126U | 0.21
133 | A56G A92G | 1.68
134 | A23G G48A | 1.29
135 | A52G U139A | 1.5
136 | G79C A91G | 0.09
137 | G104U A117G | 0.02
138 | A60G A110C | 0.4
139 | A82C A117G | 0.15
140 | A24G U103A | 0.42
141 | U102A A125G | 0.42
142 | U26G A96G | 1.78
143 | U72A U108A | 0.04
144 | U100A A117G | 1.14

Row | Variant | self-cleavage
145 | A24U A36C | 1.63
146 | A13U A116U | 0.25
147 | A13G A82G | 0.47
148 | A5U A116U | 0.35
149 | A54G A111G | 0.03
150 | C76A U120A | 0.19
151 | A18G A54G | 0.96
152 | A67G A118C | 0.76
153 | A96U U127A | 2.6
154 | U39C U57C | 1.64
155 | U37C | 1.27
156 | U57C A140G | 1.11
157 | U43A A135U | 2.21
158 | U12A A89G | 1.57
159 | A23G A64U | 1.2
160 | A24U A51U | 1.61
161 | A23U A67G | 1.73
162 | A27G G79A | 0.15
163 | A52G U102A | 0.89
164 | A92C G115A | 0.36
165 | A51G A96U | 0.46
166 | U2C A94G | 1.08
167 | A36U U39C | 1.03
